Assay results from patent US20250340657A1 (CANTARGIA, published 2025).

Target: T1, recombinant hIL1RAP 21-367 (human, UniProt Q9NPH3 21-367)
T1 construct: range 21-367; also called Rec hIL1RAP Domain123 (aa21-367); Domain123
Assay: indirect ELISA on coated hIL1RAP 21-367, three-fold dilutions from 3.5 nM
Description: An indirect ELISA assay was performed. All samples were analysed in duplicate. Nunc-MaxiSorp 96 Micro Well™ Plates were coated with 100 ng of recombinant hIL1RAP 21-367 (100 μl/well) diluted in 0.01M PBS, pH 7.4, and incubated overnight at 4° C. Plates were washed with ELISA washing buffer (0.01M PBS, 0.05% Tween 20, pH 7.4) followed by a blocking step using 150 μl/well of ELISA blocking solution (PBS, 0.5% BSA, 0.05% Tween 20, pH 7.4). After 1 h incubation at room temperature (RT) on agitation the plates were washed again using ELISA washing buffer. Samples were diluted in three fold serial dilution (ranging from 1000 ng/ml to 0.5 ng/ml) in ELISA blocking solution and then transferred to the ELISA plate, 100 μl/well. Plates were incubated at RT for 1 h on agitation and then washed with ELISA washing solution. 100 μl/well of rabbit anti-mouse IgG conjugated to Alkaline Phosohatase (DAKO, 1:1000) was added and incubated 1 hour at RT on agitation. The plates were washed followed by addition of substrate (4-Nitrophenyl phosphatise disodium salt hexahydrate, SIGMA, 1 mg/ml), 100 μl/well. The plates were thereafter incubated at RT on agitation and absorbance at 405 nm measured consecutively for 30 min. Absorbance at 0 min was taken as background signal.
An indirect ELISA assay was performed as described above with the alteration that the samples were diluted in a three-fold serial dilution starting at 3.5 nM and run in replicates of four.

Binder	Kd
hCAN04 Variant 6 (antibody, human IgG1, kappa, V domains shown, Human IgG1za / kappa, expressed in CHOK1SV cells; also called Var6; humanized variant 6 of CAN04) VH: QVQLVQSGAEVKKPGSSVKVSCKASGYAFTSSWMNWVRQAPGQGLEWMGRIYPGDGNTHYAQKFQGRVTLTADKSTSTAYMELSSLRSEDTAVYYCGEGYLDPMDYWGQGTLVTVSS VL: DIQMTQSPSSLSASVGDRVTITCQASQGINNYLNWYQQKPGKAPKLLIHYTSGLHAGVPSRFSGSGSGTDYTLTISSLEPEDVATYYCQQYSILPWTFGGGTKVEIKR	0.173 nM
hCAN04 Variant 2 (antibody, human IgG1, kappa, V domains shown, Human IgG1za / kappa, expressed in CHOK1SV cells; also called Var2; humanized variant 2 of CAN04) VH: QVQLVQSGAEVKKPGSSVKVSCKASGYAFTSSWMNWVRQAPGQGLEWMGRIYPGDGNTHYAQKFQGRVTLTADKSTSTAYMELSSLRSEDTAVYYCGEGYLDPMDYWGQGTLVTVSS VL: DIQMTQSPSSLSASVGDRVTITCSASQGINNYLNWYQQKPGKAPKLLIHYTSGLHAGVPSRFSGSGSGTDYTLTISSLQPEDVATYYCQQYSILPWTFGGGTKVEIKR	0.171 nM
hCAN04 Variant 7 (antibody, human IgG1, kappa, V domains shown, Human IgG1za / kappa, expressed in CHOK1SV cells; also called Var7; humanized variant 7 of CAN04) VH: QVQLVQSGAEVKKPGSSVKVSCKASGYTFTSSWMNWVRQAPGKGLEWMGRIYPGDGQTHYAQKFQGRVTLTADKSTSTAYMELSSLRSEDTAVYYCGEGYLDPMDYWGQGTLVTVSS VL: DIQMTQSPSSLSASVGDRVTITCQASQGINNYLNWYQQKPGKAPKLLIHYTSGLHAGVPSRFSGSGSGTDYTLTISSLEPEDVATYYCQQYSILPWTFGGGTKVEIKR	0.526 nM
hCAN04 Variant 3 (antibody, human IgG1, kappa, V domains shown, Human IgG1za / kappa, expressed in CHOK1SV cells; also called Var3; humanized variant 3 of CAN04) VH: QVQLVQSGAEVKKPGSSVKVSCKASGYTFTSSWMNWVRQAPGKGLEWMGRIYPGDGQTHYAQKFQGRVTLTADKSTSTAYMELSSLRSEDTAVYYCGEGYLDPMDYWGQGTLVTVSS VL: DIQMTQSPSSLSASVGDRVTITCSASQGINNYLNWYQQKPGKAPKLLIHYTSGLHAGVPSRFSGSGSGTDYTLTISSLQPEDVATYYCQQYSILPWTFGGGTKVEIKR	0.45 nM
hCAN04 Variant 8 (antibody, human IgG1, kappa, V domains shown, Human IgG1za / kappa, expressed in CHOK1SV cells; also called Var8; humanized variant 8 of CAN04) VH: QVQLVQSGAEVKKPGSSVKVSCKASGYTFTSSWMNWVRQAPGKGLEWMGRIYPGDGQTHYAQKFQGRVTITADKSTSTAYMELSSLRSEDTAVYYCGEGYLDPMDYWGQGTLVTVSS VL: DIQMTQSPSSLSASVGDRVTITCQASQGINNYLNWYQQKPGKAPKLLIHYTSGLHAGVPSRFSGSGSGTDYTLTISSLEPEDVATYYCQQYSILPWTFGGGTKVEIKR	0.402 nM
hCAN04 Variant 9 (antibody, human IgG1, kappa, V domains shown, Human IgG1za / kappa, expressed in CHOK1SV cells; also called Var9; humanized variant 9 of CAN04) VH: QVQLVQSGAEVKKPGSSVKVSCKASGYAFSSSWMNWVRQAPGQGLEWMGRIYPGDGNTHYAQKFQGRVTLTADKSTSTAYMELSSLRSEDTAVYYCGEGYLDPMDYWGQGTLVTVSS VL: DIQMTQSPSSLSASVGDRVTITCQASQGINNYLNWYQQKPGKAPKLLIHYTSGLHAGVPSRFSGSGSGTDFTLTISSLEPEDVATYYCQQYSILPWTFGGGTKVEIKR	0.21 nM
hCAN04 Variant 12 (antibody, human IgG1, kappa, V domains shown, Human IgG1za / kappa, expressed in CHOK1SV cells; also called Var 12; humanized variant 12 of CAN04) VH: QVQLVQSGAEVKKPGSSVKVSCKASGYTFTSSWMNWVRQAPGKGLEWMGRIYPGDGQTHYAQKFQGRVTITADKSTSTAYMELSSLRSEDTAVYYCGEGYLDPMDYWGQGTLVTVSS VL: DIQMTQSPSSLSASVGDRVTITCQASQGINNYLNWYQQKPGKAPKLLIHYTSGLHAGVPSRFSGSGSGTDFTLTISSLEPEDVATYYCQQYSILPWTFGGGTKVEIKR	0.62 nM
hCAN04 Variant 5 (antibody, human IgG1, kappa, V domains shown, Human IgG1za / kappa, expressed in CHOK1SV cells; also called Var5; humanized variant 5 of CAN04) VH: QVQLVQSGAEVKKPGSSVKVSCKASGYAFSSSWMNWVRQAPGQGLEWMGRIYPGDGNTHYAQKFQGRVTLTADKSTSTAYMELSSLRSEDTAVYYCGEGYLDPMDYWGQGTLVTVSS VL: DIQMTQSPSSLSASVGDRVTITCQASQGINNYLNWYQQKPGKAPKLLIHYTSGLHAGVPSRFSGSGSGTDYTLTISSLEPEDVATYYCQQYSILPWTFGGGTKVEIKR	0.135 nM

Continued, values first:

Kd	Binder
0.088 nM	CAN04 (murine) as listed in Table 3 (antibody, human IgG1, kappa, V domains shown, Whether the footnotes apply to the row labelled '(murine)' is not certain) VH: QVQLQQSGPELLKPGASVKISCKASGYAFSSSWMNWVKQRPGKGLEWIGRIYPGDGNTHYSGKFKGKATLTADKSSSIAYMQLSSLTSEDSAVYFCGEGYLDPMDYWGQGTSVTVSS VL: DIQMTQTTSSLSASLGDRVTISCSASQGINNYLNWYQQKPDGTVKLLIHYTSGLHAGVPSRFSGSGSGTDYSLTISNLEPEDVATYYCQQYSILPWTFGGGTKLEIKR
0.47 nM	hCAN04 Variant 4 (antibody, human IgG1, kappa, V domains shown, Human IgG1za / kappa, expressed in CHOK1SV cells; also called Var4; humanized variant 4 of CAN04) VH: QVQLVQSGAEVKKPGSSVKVSCKASGYTFTSSWMNWVRQAPGKGLEWMGRIYPGDGQTHYAQKFQGRVTITADKSTSTAYMELSSLRSEDTAVYYCGEGYLDPMDYWGQGTLVTVSS VL: DIQMTQSPSSLSASVGDRVTITCSASQGINNYLNWYQQKPGKAPKLLIHYTSGLHAGVPSRFSGSGSGTDYTLTISSLQPEDVATYYCQQYSILPWTFGGGTKVEIKR
0.504 nM	hCAN04 Variant 11 (antibody, human IgG1, kappa, V domains shown, Human IgG1za / kappa, expressed in CHOK1SV cells; also called Var11; humanized variant 11 of CAN04) VH: QVQLVQSGAEVKKPGSSVKVSCKASGYTFTSSWMNWVRQAPGKGLEWMGRIYPGDGQTHYAQKFQGRVTLTADKSTSTAYMELSSLRSEDTAVYYCGEGYLDPMDYWGQGTLVTVSS VL: DIQMTQSPSSLSASVGDRVTITCQASQGINNYLNWYQQKPGKAPKLLIHYTSGLHAGVPSRFSGSGSGTDFTLTISSLEPEDVATYYCQQYSILPWTFGGGTKVEIKR
0.301 nM	hCAN04 Variant 10 (antibody, human IgG1, kappa, V domains shown, Human IgG1za / kappa, expressed in CHOK1SV cells; also called Var10; humanized variant 10 of CAN04) VH: QVQLVQSGAEVKKPGSSVKVSCKASGYAFTSSWMNWVRQAPGQGLEWMGRIYPGDGNTHYAQKFQGRVTLTADKSTSTAYMELSSLRSEDTAVYYCGEGYLDPMDYWGQGTLVTVSS VL: DIQMTQSPSSLSASVGDRVTITCQASQGINNYLNWYQQKPGKAPKLLIHYTSGLHAGVPSRFSGSGSGTDFTLTISSLEPEDVATYYCQQYSILPWTFGGGTKVEIKR
0.125 nM	hCAN04 Variant 1 (antibody, human IgG1, kappa, V domains shown, Human IgG1za / kappa, expressed in CHOK1SV cells; also called Var1; humanized variant 1 of CAN04) VH: QVQLVQSGAEVKKPGSSVKVSCKASGYAFSSSWMNWVRQAPGQGLEWMGRIYPGDGNTHYAQKFQGRVTLTADKSTSTAYMELSSLRSEDTAVYYCGEGYLDPMDYWGQGTLVTVSS VL: DIQMTQSPSSLSASVGDRVTITCSASQGINNYLNWYQQKPGKAPKLLIHYTSGLHAGVPSRFSGSGSGTDYTLTISSLQPEDVATYYCQQYSILPWTFGGGTKVEIKR

Target: T2, human IL1RAP (analyte of the Biacore study) (human, UniProt Q9NPH3 21-367, limits assumed)
T2 construct: The methods say only 'the analyte (100 nM)'; The result sentence names it human IL1RAP; also called IL1-RAP protein; the analyte
Assay: SPR (Biacore T200), antibody captured on anti-mouse IgG, analyte 100 nM, 25 C
Description: Goat anti-mouse IgG was immobilized on a CM5 chip according to the technical manual of capture kit and standard operation principle of BIAcore T200 (Biacore Life Sciences, GE Healthcare Europe GmbH, Uppsala, Sweden).
The capture molecule surface was regenerated after each binding cycle using the manufacturer's recommended conditions.
After five cycles of start-up, each antibody (100 nM) was injected at a flow rate of 30 μl/min, for 120 s, at the start of the cycle; then the analyte (100 nM) was injected at a flow rate of 30 μl/min, for 120 s, followed by monitoring the dissociation phase for 300 s.

Kd	koff	kon	Binder
0.11 nM	4.72e-05 s⁻¹	427000 M⁻¹ s⁻¹	CAN04 (antibody, V domains shown, Murine-derived monoclonal IgG; It was PE-conjugated on primary cells and AF488-labelled for confocal microscopy; also called exemplary antibody of the invention) VH: QVQLQQSGPELLKPGASVKISCKASGYAFSSSWMNWVKQRPGKGLEWIGRIYPGDGNTHYSGKFKGKATLTADKSSSIAYMQLSSLTSEDSAVYFCGEGYLDPMDYWGQGTSVTVSS VL: DIQMTQTTSSLSASLGDRVTISCSASQGINNYLNWYQQKPDGTVKLLIHYTSGLHAGVPSRFSGSGSGTDYSLTISNLEPEDVATYYCQQYSILPWTFGGGTKLEIKR
